In the RNAGym collection of RNA variant scans (doi:10.1073/pnas.2313332121):
Variants at the floor of the assay were thinned out.

B1: TPR 5TU (parent)
chain: GGAUCUUCUCGAUCUAACAAAAAAGACAAAUCUGCCACAAAGCUUGAGAGCAUCUUCGGAUGCAGAGGCGGCAGCCUUCGGUGGCGCGAUAGCGCCAACGUUCUCAACUAUGACACGCAAAACGCGUGCUCCGUUGAAUGGAGUUUAUCAUG

Variants of: B1
Test: polymerase ribozyme fitness, log enrichment relative to wild type (log ratio); higher = more active; in vitro selection for triplet polymerase activity
In short: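 After PCR construction and transcription, each subunit's mutant library from a heterodimeric triplet polymerase ribozyme was annealed with a biotinylated primer, the partner subunit and triplets. Incubation was frozen, at −7 °C, and extended constructs were gel-excised, bound to streptavidin beads and amplified by RT-PCR, in one selection round done in triplicate. Fitness is the logarithm of a genotype's enrichment divided by that of the wild type, from inverse-variance-weighted replicate averages of Illumina-sequenced inputs and outputs. The base of the logarithm is 2, and genotypes needed ≥10 input reads and ≥1 read per output.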

GGAUCUUCUCGAUCUAGCAAAAAAGACAAAUCUGCCACAAAGCUUGAGAGCAUCUUUGGAUGCAGAGGCGGCAGCCUUCGGUGGCGCGAUAGCGCUAACGUUCUCAACUAUGACACGCAAAACGCGCGCUACUUUGAAUGGAGUUCAUCAUG [A17G C57U C96U U127C C131A G133U U146C] and GGAUCUUCUCGAUCUAGCAAAAAAGACAAAUCUGCCACAAAGCUUGAGCGCAUCUUCGGAUGCAGAGGCGGCAGCCUUCGGUGGCGGGAUAGCGCCAACGUUCUCAACUAUGACACGCAAAAGGCGUGCUCCGUUGAAUGAAGUUUAUCAUG [A17G A49C C87G C123G G141A] cannot be ordered by “polymerase ribozyme fitness (log ratio)” value: at most -4.2 for the first, at most -4.2 for the second.

GGAUCUUCUCGAUCUAGCAAAAAAGACAAAUCUGACACACAGCUUGAGAGCAUCUUCGGAUGCAGAUGCGGCAGCCUUCGGUGGCGCGAUAGCGCAAACGUUCUCAACUAUGACACGCAAAACGCGUGGUCCGUUGAAUGGAGUUUAUCAUG [A17G C35A A40C G67U C96A C129G] and GGAUCUUCUCGAUCUAGCAAAAAAGACAAAUCUGCCAAAAAGCUAGAGAGCAUCUUCGGAUGCAGAGGAGGCAGCCUUCGGUGGUGCGAUAGCGCCAACGUUCUCAACUAUGACACGCAAAACGCGUGCUCCGUUGAAUGGCGUUUAUUAGG [A17G C38A U45A C69A C85U A142C C149U U151G] cannot be ordered by “polymerase ribozyme fitness (log ratio)” value: at most -4.2 for the first, at most -4.2 for the second.

GGAUCUUCUCGAUCUAGCAAAAAAGACAAAUCUGACACAAAGCUUGAGAGCAUCUUCGGAUGCAGACGCGGCAGCCUUCGGUGGCGCGAUAGCGCUAACGUUCUCAACUAUGAUAUGCAAAACGCGUGCUCCGUUGAAUGGAGUUUAUCAUG [A17G C35A G67C C96U C114U C116U] and GGAUCUUCUCGAUCUAGCAAAAAAGACAAAUCUGCCACAAAGCUUGAGAGCAUCUUCGGAUGCAGAGGCGGUAGCCUUCGGUGGCGCUAUAGCGCCAACGUCCUGAACUAUGACACGCAAAACGCGUGCUCCGUUGAAUGGAGUUUAUCAUG [A17G C72U G88U U102C C105G] cannot be ordered by “polymerase ribozyme fitness (log ratio)” value: at most -4.2 for the first, at most -4.2 for the second.

Going from GGAUCUUCUCGAUCUAGCAAAAAAGACAAAUCUGCCACAAAGCUUGAGAGCAUCUUCGGAUGCAGAGGCGGCAGCCUUCGGUGGCGCGGUAGCGCCAACGUUCUCAACUAUGACACGCAAAACGCGUGCUCCGUUGAAUGGAGUUUAUCAUG [A17G A89G] to GGAUCUUCUCGAUCUAGCAAAAAAGACAAAUCUGUCACAAAGCUUGAGAGCAACUUCGGAUGCAGAGGCGGCAGCCUUCGGUGGCGCGAUAGCACCAACGUUCUCAACUAUGACACGCAAAACGCGUGCUCCGUUGAAUGGAGUUUAUCAUG [A17G C35U U53A G94A], the “polymerase ribozyme fitness (log ratio)” value falls from -0.582 to -1.28.

Compared with GGAUCUUCUCGAUCUAGCAAAAAAGACAAAUCUGCCACAAAGCUUGAGAGCGUCUUCGGAUGCAGAGGCGGCAGCCUUCGGUGGGGCGAUAGCGCCAACGUUCUCAACUAUGACACGCAAAACGCGUGCUCCGUUGAAUGGAGUUUAUCAUG [A17G A52G C85G], GGAUCUUCUCGAUCUAGCAAAAAAGACAAAUCUGCGACAAAGCUUGAGAGCAUCUUCGGAUGCAGAGGCGGCAGCCUUAGGUGGCGCGAUAGCGUCUACGUUCUCAACUAUGACACUCAAAACGCUUGCUCCGUUGAAUGGAGUUUAUCAUG [A17G C36G C79A C95U A97U G117U G126U] is lower in “polymerase ribozyme fitness (log ratio)” value: -2.03 for the first, -4.08 for the second.

GGAUCUUCUCGAUCUAGGAAAAAAGACAAAUCUGCCACACAGCUUGAGAGCAUCUUCGGAUGCAGAGGCGGCAGCCUUCGGUGGGGCGAUAGCGCCAACGUUCUCUACUAUGACACGCAAAACUUGUGCUCCGUUGAAUGGAGUUUAUCAUG [A17G C18G A40C C85G A106U G124U C125U] and GGAUCUUCUCGAUCUAGCAAAAAAGACAAAUCUGCCACAUAGCUUGAGAGCAUCAACGGAUGCAGAGGCGGCAGCCUUCGGUGGCGCGAUAGCGCCAACGUUAUCAACUAUGACACGCGAAACGCGUGCUCCGAUGAAUGGAGUUUAUCAUG [A17G A40U U55A U56A C103A A119G U134A] cannot be ordered by “polymerase ribozyme fitness (log ratio)” value: at most -4.2 for the first, at most -4.2 for the second.

First: GGAUCUUCUCGAUCUAGCAAAAAAGACAAAUCUGCCACAAAGCUUGAGCGCAUCUUCGUAUGCAGAGGCGGCAGCCUUCGGUGGCGCGAUAACGCCAACGUUCUCAACUAUGGCACGCUAAACGCGUGCUCCGUUGAAUGGAGUUUAUCAUG [A17G A49C G59U G92A A113G A119U]
Second: GGAUCUUCUCGAUCUAGCAAAAAAGACAAAUCUGUCACAAAGCUUGAGAGCAUCUUCGGAUGCAGAGGCGGCAGCCUUCGGUAGCGCGAUAGCGCCAACGUUCUCAACUAUGACACGCAAAACGCGUGCUCCGUUGAAUGGAGUUUAUCAUG [A17G C35U G83A]
The “polymerase ribozyme fitness (log ratio)” value of the first is lower: -4.03 for the first, -0.796 for the second.

GGAUCUUCUCGAUCUAGCAAAAAAGACAAAUCUGCCACAAAGCUUGAGAGCAUCUUAGGAUGCAGAGGCGGCAGCCUUCGGUGGCGCGAUGGCGGCAACGUUCUCAACUAUGACACGCAAAUCGCGUGCUCCGUUGAAUGGAGUUUAUCAUG [A17G C57A A91G C95G A122U] and GGAUCUUCUCGAUCUAGCAAAAAAGACAAAUCUGCCACAAAGCUUGAGAGCUUCUUCGGAUGCAGAGGCGGCAGCCUUCGGUAGCGCGAUAGCGUCAACGUUCUCAACUAUGACACGCAAAACGCGUGCUCCGUUGAAUGGAGUUUAUCAUG [A17G A52U G83A C95U] are within 0.2 log units of each other in “polymerase ribozyme fitness (log ratio)” value: -4.04 for the first, -3.91 for the second.

Compared with GGAUCUUCUCGAUCUAGCAAAAAAGACAAAUCUGCCACAAAGCUUGAGAGCAUCUUCGGGUGCAGAGGCGGCAGCCUUCGGUGGGGCGUUAGCGCCAACGUUCUCAACUAUGACACGCAAAACGCGUGCUCCGUUGAAUGGAGUUUAUCAUG [A17G A60G C85G A89U], GGAUCUUCUCGAUCUAGCAAAAAAGAGAAAUCUGCCACAAAGCUUGAGAGCAUCUUCGGAUGCAGGGGCGGCAGCCUUCGGUGGCGCGAUAGCGCCAACGUUCUCAGCUAUGACCCGCAAAACGCGUGCUCCGUUGAAUGGAGUUUAUCAUG [A17G C27G A66G A107G A115C] is lower in “polymerase ribozyme fitness (log ratio)” value: -2.31 for the first, at most -4.2 for the second.

With GGAUCUUCUCGAUCUAGCAAAAAAGACAAAUCUGCCACAAAGCUUGAGUGCAUCUUCGGAUGCAGAGGCGGCAGCCUUCGGUUGCGCGAUAGCGCCAACGUUCUCAACUAUGACACGCAAAACGCGUGCUCCGUUGAAUGGAGUUUAUCAUG [A17G A49U G83U] the “polymerase ribozyme fitness (log ratio)” value was -3.31.
